Key:
Test in all cases: cryo-EM structure
[1] = target: zip protein (CIV minor capsid protein) (Chilo iridescent virus (CIV))
[2] = target: pentameric vertex complex of CIV (vertex protein) (Chilo iridescent virus (CIV))
cryo-EM structure = target: the molecule itself

Work on “zip protein (CIV minor capsid protein) (natural protein)” yielded a stoichiometry N [1] of 2.

For “pentameric vertex complex of CIV (vertex protein) (natural protein)”, the stoichiometry N [2] was 5.

B1: P50, the CIV major capsid protein (MCP) (natural protein)
chain: MSISSSNVTSGFIDIATKDEIEKYMYGGKTSTAYFVRETRKATWFTQVPVSLTRANGSANFGSEWSASISRAGDYLLYTWLRVRIPSVTLLSTNQFGANGRIRWCRNFMHNLIRECSITFNDLVAARFDHYHLDFWAAFTTPASKAVGYDNMIGNVSALIQPQPVPVAPATVSLPEADLNLPLPFFFSRDSGVALPTAALPYNEMRINFQFHDWQRLLILDNIAAVASQTVVPVVGATSDIATAPVLHHGTVWGNYAIVSNEERRRMGCSVRDILVEQVQTAPRHVWNPTTNDAPNYDIRFSHAIKALFFAVRNTTFSNQPSNYTTASPVITSTTVILEPSTGAFDPIHHTTLIYENTNRLNHMGSDYFSLVNPWYHAPTIPGLTGFHEYSYSLAFNEIDPMGSTNYGKLTNISIVPTASPAAKVGAAGTGPAGSGQNFPQTFEFIVTALNNNIIRISGGALGFPVL
In the case of B1, the “stoichiometry N” value (cryo-EM structure) is reported as 3.

Reference: publication PMC2911444 (Journal of molecular biology, 2008)
